Assay: soluble on expression in E. coli; label from the status in PepcDB or PDB records

With “MGSDKIHHHHHHMERCSVLRIKRLPESLVRKIAAGEVIHNPSFVLKELVENSLDAQADRIVVEIENGGKNMVRVSDNGIGMTREEALLAIEPYTTSKIESEEDLHRIRTYGFRGEALASIVQVSRAKIVTKTEKDALATQLMIAGGKVEEISETHRDTGTTVEVRDLFFNLPVRRKSLKSSAIELRMCREMFERFVLVRNDVDFVFTSDGKIVHSFPRTQNIFERALLILEDLRKGYITFEEELSGLRIKGIVSSREVTRSSRTGEYFYVNGRFVVSEELHEVLMKVYDLPKRSYPVAVLFIEVNPEELDVNIHPSKIVVKFLNEEKVKKSLEETLKRNLARKWYRSVAYEEISSRALSVAEAPSHRWFLVKGKYAVVEVEDGLLFVDLHALHERTIYEEILSKKSWGKRRVKRNITVVLSREEKQKLEEYGFSFQGEEGALKVIEIPEFLTEDVVEEFFRDFPVDEKLKERIALAACKLATKSGEFDEEIASKLLDVFFKKRFERCPHGRPISFKISYEDMDRFFER” as the sequence, how does the “soluble on expression in E. coli” value read?
The value was “not soluble”.

For “MEAHNQFLKTFQKERHDMKEAEKDEILLMENSRRFVMFPIKYHEIWAAYKKVEASFWTAEEIELAKDTEDFQKLTDDQKTYIGNLLALSISSDNLVNKYLIENFSAQLQNPEGKSFYGFQIMMENIYSEVYSMMVDAFFKDPKNIPLFKEIANLPEVKHKAAFIERWISNDDSLYAERLVAFAAKEGIFQAGNYASMFWLTDKKIMPGLAMANRNICRDRGAYTDFSCLLFAHLRTKPNPKIIEKIITEAVEIEKEYYSNSLPVEKFGMDLKSIHTYIEFVADGLLQGFGNEKYYNAVNPFEFMEDVATAGKTTFFEKKVSDYQKASDMSKSATPSKEINFDDDF”, which “soluble on expression in E. coli” value is on record?
The value was “soluble”.

With “MFFKKNLTTAAICAALSVAAFSAMATDSTDTELTIIGEYTPGACTPVVTGGGIVDYGKHHNSALNPTGKSNKLVQLGRKNSTLNITCTAPTLIAVTSKDNRQSTIVALNDTSYIEKAYDTLVDMKGTKNAFGLGSAPNGQKIGAASIGIDRSNGGIHAADDTGEIPVDLIQTDHWSAATPTWKASSNGAFCSLTSCSAIERGYSVAKTGELTPVAITAVTFPLLIDAAVNDNTILGSDETIKLDGNVTISVQYL” as the sequence, how does the “soluble on expression in E. coli” value read?
Its value is “not soluble”.

Which “soluble on expression in E. coli” value does the source give for “MRKKKDGQNLPDFRKNPPKLDKKAYEKELKRLQAELVDLQQWVVETGARVVIVMEGRDAAGKGSAIKRITQYLNPRSARIEALPTPNSREKGQWYFQRYIEKLPTAGEIVIFDRSWYNRAGVERVMGFCTSQEYRRFLHQAPIFERLLVEDGIHLRKYWFSVSDEEQIERFEDRLSDPLRRWKLSPMDLQSITRWEDYSRAKDEMFIHTDIPSAPWYTVESEDKKRSRINVISHLLSTIPYEKIDRPLPEIPHRPDSESDYVRPPRDEFRYVPDVAAHLEEERIKKEEKAKKAKKPAKAAGKNSDKQKSSGGKGKKKSKK” here?
The value was “not soluble”.

With “MIRNPKIYIIILNYNAYEDTLECVKSIGNIDYDNYELVLVDNSSTDDSYVKLKESLPSYNIIKSKENLGYANGNNIGIKYALENGADYICILNNDVVVEKDFLNKLVDKIIEKEDVGIVGSCICDYYRREIIQGMGAHINLYFAAARRYFKGKNYNEIEKKDIFVDYLEGACFLVKSEVFEKIGLIPENYFLFFEETEFCTRAINAGYKIMCIYESKVYHKGSATINKFGSLSYAYLNRNRVIFVRRNSKWYQKIIFAIYIFIEAFGRIVIRKEPLTLFKYILGGFKSNKESIDVIDVKSYVKLEHHHHHH” as the sequence, how does the “soluble on expression in E. coli” value read?
Its value is “not soluble”.

Which “soluble on expression in E. coli” value does the source give for “MSSVKRSLKQEIVTQFHCSAAEGDIAKLTGILSHSPSLLNETSENGWTALMYAARNGHPEIVQFLLEKGCDRSIVNKSRQTALDIAVFWGYKHIANLLATAKGGKKPWFLTNEVEECENYFSKTLLDRKSEKRNNSDWLLAKESHPATVFILFSDLNPLVTLGGNKESFQQPEVRLCQLNYTDIKDYLAQPEKITLIFLGVELEIKDKLLNYAGEVPREEEDGLVAWFALGIDPIAAEEFKQRHENCYFLHPPMPALLQLKEKEAGVVAQARSVLAWHSRYKFCPTCGNATKIEEGGYKRLCLKEDCPSLNGVHNTSYPRVDPVVIMQVIHPDGTKCLLGRQKRFPPGMFTCLAGFIEPGETIEDAVRREVEEESGVKVGHVQYVACQPWPMPSSLMIGCLALAVSTEIKVDKNEIEDARWFTREQVLDVLTKGKQQAFFVPPSRAIAHQLIKHWIRINPNL” here?
The value was “soluble”.

For “MSLTVQDLHFKNKVNFIGGQYVPSNESDTIDILSPSTGKVIGEIPAGCKADAENALEVAQAAQKAWAKLTARTRQNMLRTFANKIRENKHILAPMLVAEQGKLLSVAEMEVDVTATFIDYGCDNALTIEGDILPSDNQDEKIYIHKVPRGVVVGITAWNFPLALAGRKIGPALITGNTMVLKPTQETPLATTELGRIAKEAGLPDGVLNVINGTGSVVGQTLCESPITKMITMTGSTVAGKQIYKTSAEYMTPVMLELGGKAPMVVMDDADLDKAAEDALWGRFANCGQVCTCVERLYVHASVYDEFMAKFLPLVKGLKVGDPMDADSQMGPKCNQREIDNIDHIVHEAIKQGATVATGGKTATVEGFEGGCWYEPTVLVDVKQDNIVVHEETFGPILPIVKVSSMEQAIEFCNDSIYGLSAYVHTQSFANINQAISDLEVGEVYINRGMGEQHQGFHNGWKQSGFGGEDGKFGLEQYLEKKTVYINEAEGHHHHHH”, which “soluble on expression in E. coli” value is on record?
The value was “soluble”.

For “GAMDPAVMKIEYYSQVLDMEWGVNVLYPDANRVEEPECEDIPVLYLLHGMSGNHNSWLKRTNVERLLRGTNLIVVMPNTSNGWYTDTQYGFDYYTALAEELPQVLKRFFPNMTSKREKTFIAGLSMGGYGCFKLALTTNRFSHAASFSGALSFQNFSPESQNLGSPAYWRGVFGEIRDWTTSPYSLESLAKKSDKKTKLWAWCGEQDFLYEANNLAVKNLKKLGFDVTYSHSAGTHEWYYWEKQLEVFLTTLPIDFKLEERLT”, which “soluble on expression in E. coli” value is on record?
The value was “soluble”.

For “MGSSHHHHHHSSGLVPRGGSHMSAASSIFDFEVLDADHKPYNLVQHKGSPLLIYNVASKCGYTKGGYETATTLYNKYKSQGFTVLAFPCNQFGGQEPGNEEEIKEFVCTKFKAEFPIMAKINVNGENAHPLYEYMKKTKPGILKTKAIKWNFTSFLIDRDGVPVERFSPGASVKDIEKKLIPLLESTQSA”, which “soluble on expression in E. coli” value is on record?
The value was “soluble”.

For “MGSDKIHHHHHHMLDSSSGNAPDTHAAVDSAVLVSLDLNDSDSAENLEELRQLAASDRLAISAVVLGKRLRPDPATFAGSGKVDEIMGAVEQTGASLVIFNHDLSPAQQRNLEQRLRRRVIDRTSLILDIFAQRAKSHEGKLQVELAQLEHLATRLVRGWTHLERQKGGIGLRGPGETQLETDRRLLGKRVKVLKEKLAKFERQRALQRRARRRAQVMSVSLVGYTNAGKSTLFNRLTRGHTYVADQLFATLDATTRKLFIADRGPLVLSDTVGFIRDLPHTLVAAFRATLEETVQADLLLHVVDTSSSNRSEQIDEVNKVLKEIGADRIPQILVLNKTDLVDLPASSPGYQRDEYGRIVQVRLSAKTGEGLEFINLALSEALGERAALREPDNQSEAQDITSGYH”, which “soluble on expression in E. coli” value is on record?
The value was “not soluble”.

Which “soluble on expression in E. coli” value does the source give for “RLKNPKIKQGGEWMDVDWKTALEYVRSAIECIAKDGNQNQVGVWANPMNTVEELYLAKKFADGLGVKNFATRLRQQDKRLSDGLKGAQWLGQSIESLADNDAVLVVGANLRKEQPLLTARLRRAAKDRMALSVLAGSKEELFMPLLSQEAAHPDEWAGRLKNLSADAEHAVTASLKNAEKAAVILGAEVQNHPDYAAIYAAAQELADATGAVLGILPQAANSVGADVLGVNSGESVAEMANTPKQAVLLLNVEPEIDTVDGAKAVAALKQAKSVMAFTPFVSETLLDVCDVLLPIAPFTETSGSFINMEGRLQSFHGVVQGFGDSRPMWKVLRVLGNLFDLKGFEYHDTAAILKDALD” here?
Its value is “not soluble”.

For “MLSGDLAEFPFPSLVGALMSAGRTGRLHLRPPFLEAEVYLRGGQVVHAKAQAGERALEGEEALDLLVGLRRAPFVFEPEALPPHTTLLGGLEVPARLAQAQAAWEKVKLPADWGLRLRLPREGSAVELPPEALGLLARVEGKRIAEVLLAPGVLRQARVLSTLLEVGALEAYPEVDLPPEPLVVLPIYGPGSGVAYVDEALYAQWARAIRRGFRVRLLPLGAVLEVRPRPNLQGRVGLMEEDLKRLRLRRGDKVEAVPKV”, which “soluble on expression in E. coli” value is on record?
Its value is “soluble”.

Which “soluble on expression in E. coli” value does the source give for “MGSDKIHHHHHHMTNWNLWRTLNMEYIINPCSGIKIKITRGQKIKIVDIEGGQVVDFFAEMKDDSTEFISPGVTIDCNESLRLQVGNLIYSNKYRPMFKILYDDVREHDLLHPCCRPEMYDFFYHNGENHPNCFDNINRTLGTSHQIIHPINFFMYTKVNTDGSIEVCEPLSKANDKIILEALENMTLGIAACSVSESSCNSRKCTSIKILVD” here?
Its value is “not soluble”.

With “MTISRRSLLEGLLGAAAGLALLPVLGGRAGAALPREAEVVVVGAGAAGIAAARRIVAAGRKVIVVEAASEIGGRCVTDTTSFAAPFDRGARWLHNPDSNPLVRLARSSGFAVTPVAPGQKVRIGRRNARSRETEDFLAAFVRASRAISDASRGKSDISCAAALPNDLGDWAATIEYVLGPATTSKDLRALSAMDAVRTLDRTALLGCPQGVGSLLTQLASSLPIALSTPVKRIVWSGRDLAVETTAGRIGARAIIVTASTNVLTSGNLGFSPELPKRQLDAAARLSLGSIDRIALQFKGNPLGLSRDETIIERADDIRTATLVGNIGGTSLCTVDVAGSFGRQLAAQGEAAMQDFAIEWLGKLFGSDIAGAVERKAVTRWNEMPYVLGAMSAAEPGGQPSRKVLGEPLGNLFFAGEATHETLFGTVQGAWESGERAADAALKKIGAVKEPAPEKPVRKQKPRREPQRQREQRPPATASGTPSWWRLEHHHHHH” as the sequence, how does the “soluble on expression in E. coli” value read?
The value was “not soluble”.

Which “soluble on expression in E. coli” value does the source give for “MNVTEITQLARDIRVATLKSLNHLGFGHYGGSMSVVETLAVLYGAVMKIDPADPDWPERDYFVLSKGHAGPALYSTLAIKGYFPREELNTLNQNGTRLPSHPDRLKTRGVDATTGSLGQGISIAGGMALSHKLARRPNRVFCIVGDGELNEGQCWEAFQFIAHHRLNNLTVFIDWNKQQLDGELEEIINPFDLEGKFRAFGFDVVTVKGDDIAGLLAVVQPVPPADAQPRVVILDSIKGQGVPCLEQLTNSHHLRLTDGMKQTLNEAIHQLEVMHD” here?
Its value is “not soluble”.

Which “soluble on expression in E. coli” value does the source give for “MSLSDQTLQDILRYLTEETGLAPFQVANTVELLREGGTVPFIARYRKERTGELDEVGIRGIEERLAYFTELEERKLTVLKSIEEQGKLTPELADRIRTSRQKTEVEDLYLPYKPKRRTKATIARERGLEPLADLMAAQELTAGTPEEATLPFVDPAGEVPDAAAALEGAGHILAERLADDADARAFVRRLTADQGIFCSRVAADRKGAVTKFEMYYDHREPLKSVPSHRMLAMRRGEKEEVLVLTIEAPTEEILAGLRARIAGRASIFRQLLEGAAEDAYKRLIAPSIEVELRLEAKQRADEAAITVFAQNLRNLLLAPPAGGKRVLGVDPGLRTGSKLAAVDGTGRFLEHVTIYPHAGGEGKVAAAKREFLRLVECHGIEMVAVGNGTAGREMEQFAKETLAEGGKRIPVVMVSEAGASVYSASEIAREEFPDLDLTVRGAISIARRLQDPLAELVKIDPKSIGVGQYQHDVDQRALKKSLDAVVESCVNYVGVDLNTASWALLSYVSGVGPSLARAIVRHRDEHGPFPARRALMKVPRFGDKAFEQAAGFLRIRGGEHPLDATAVHPERYPVVEAMATDLGVSLSQLAADPALPARIDLKRYVTDAVGLPTLRDIMEELKKPGRDPREEFRTAAFRDDVTEIGDLKEGMVLQGVVTNVTAFGAFVDVGVHQDGLVHVSHLSVKFVKDPAEAVRVGQVVQVKVLSVDVQRKRISLSIREAAPGGAPRSTEGHHHHHH” here?
The value was “soluble”.

With “MRCQPFCRNLAGFPQNSPAQSTTMTYTHGSALPSTDDVTIDADVATEELTGTAAFDAGVGDMPSWEELVAQHADSVYRLAFRLSGNQHDAEDLTQETFMRVFRSLKGYQPGTFEGWLHRITTNLFLDMVRHRAKIRMEALPEDYERVPGTDMTPEQAYNVSNLDPALQKALDDLSPDFRVAVVLCDVVGMSYDEIADTLGVKMGTVRSRIHRGRSQLRAHLENQATSDEGAQLLLATGR” as the sequence, how does the “soluble on expression in E. coli” value read?
Its value is “not soluble”.

For “HHHHHHMDLVEKVKELCLELEEENLAKAIERFITLTHGIEKTRGEAFAKASIYGFLEGILTTLKMKYSNEKIETLLNEVKTAREETEALLRKPRPPLLVDNDL”, which “soluble on expression in E. coli” value is on record?
Its value is “soluble”.

Source: the DeepSol protein solubility set
